Measured values from US20030162942A1 (DYAX, published 2003).
Positions of bridges follow the written chain, without caps; N, C: chain ends. No end group written: not given here.

Biological target: T1, recombinant human tissue-type plasminogen activator (tPA) (human, UniProt P00750 36-562)
T1 construct: Immobilized on ReactiGel agarose beads for the phage work; Used in solution for the column tests
Assay: peptide bound to a chromatographic support

T1 sequence (P00750 36-562 limits assumed): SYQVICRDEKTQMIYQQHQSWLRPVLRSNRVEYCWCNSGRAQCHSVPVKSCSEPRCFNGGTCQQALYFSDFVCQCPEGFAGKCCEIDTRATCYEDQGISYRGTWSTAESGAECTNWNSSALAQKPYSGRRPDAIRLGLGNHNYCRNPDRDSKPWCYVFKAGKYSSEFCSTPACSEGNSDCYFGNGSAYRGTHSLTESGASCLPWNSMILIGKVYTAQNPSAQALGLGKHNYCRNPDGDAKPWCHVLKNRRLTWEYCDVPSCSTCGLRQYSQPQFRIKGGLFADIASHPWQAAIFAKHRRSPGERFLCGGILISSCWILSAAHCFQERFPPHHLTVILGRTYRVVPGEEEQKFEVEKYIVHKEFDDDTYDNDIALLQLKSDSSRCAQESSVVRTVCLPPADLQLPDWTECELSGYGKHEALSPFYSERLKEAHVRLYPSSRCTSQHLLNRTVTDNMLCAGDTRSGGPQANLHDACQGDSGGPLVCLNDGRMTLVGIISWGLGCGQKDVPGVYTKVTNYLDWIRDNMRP

binding result: binds
B1: 15-amino acid segment derived from affinity ligand isolate #109 (peptide)
peptide: RLCPKTDLGCMKDSD
modifications: disulfide 3-10; also: bound to a chromatographic support
notes: also called truncated 15-amino acid segment of the isolate #109; C3-C10 loop
